The values below come from PMC6539309, “PgMYB2, a MeJA-Responsive Transcription Factor, Positively Regulates the Dammarenediol Synthase Gene Expression in Panax Ginseng”.

The data set concerns the target PgMYB2 (TF fusion) (Panax ginseng, UniProt A0A1Z1CH15 1-280). The data set can be described thus: EMSA; LightShift Chemiluminescent EMSA kit protocol, room temperature, 20 min, native PAGE; protein stored in 20 mM Tris-HCl pH 7.2; binding buffer not stated. The following applies: protein: recombinant; tags: N-terminal trigger factor (TF) + 6xHis (pCold/TF); label: biotin; blunt. Background: A gel shift assay detects complexes by their altered migration in electrophoresis.

Chain of PgMYB2 (TF fusion) (A0A1Z1CH15 entry or part of it): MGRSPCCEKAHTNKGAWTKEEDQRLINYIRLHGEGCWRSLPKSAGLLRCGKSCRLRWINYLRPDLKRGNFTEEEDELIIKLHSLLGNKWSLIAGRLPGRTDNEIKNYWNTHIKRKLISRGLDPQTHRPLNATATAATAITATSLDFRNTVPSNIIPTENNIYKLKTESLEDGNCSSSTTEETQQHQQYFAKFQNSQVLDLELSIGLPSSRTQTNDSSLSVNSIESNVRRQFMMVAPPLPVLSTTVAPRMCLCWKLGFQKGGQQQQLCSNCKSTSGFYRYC

B1: MBSII probe (dsDNA)
DNA 1: GACTGGCATTGATTTAAAAGGCGGT
DNA 2: ACCGCCTTTTAAATCAATGCCAGTC
Take B1: the binding result was “binds”.
